This assay addresses T1, hu-IL-2Rβ subunit (human, UniProt P14784 27-240, limits assumed).
T1 construct: also called human interleukin-2 receptor subunit β; CD122
T1 sequence (looked up): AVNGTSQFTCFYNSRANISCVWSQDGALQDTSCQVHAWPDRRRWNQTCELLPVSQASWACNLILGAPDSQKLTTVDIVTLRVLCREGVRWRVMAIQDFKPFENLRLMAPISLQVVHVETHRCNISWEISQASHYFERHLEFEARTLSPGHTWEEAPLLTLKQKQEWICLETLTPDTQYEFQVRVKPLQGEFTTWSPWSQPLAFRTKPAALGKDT
Nature of the assay: phage ELISA competition assay. (ELISA stands for enzyme-linked immunosorbent assay.)

Positions of bridges follow the written chain, without caps; N, C: chain ends. No end group written: not given here.

B1: SEQ ID NO 207 (peptide)
peptide: AVSHGNWLPCYIAQLGELCDLD
The molecule B1 returned an IC50 of less than 100 µM.

B2: SEQ ID NO 88 (peptide)
peptide: VMSPTRWLPCWIAKLGELCDLE
Molecule B2 came in with an IC50 of less than 100 µM.

B3: SEQ ID NO 209 (peptide)
peptide: WYPCWIAQLGEVCDLEKQTGSV
In turn, B3 displayed an IC50 of less than 100 µM.

B4: SEQ ID NO 182 (peptide)
peptide: SNPCWMAQLWELCDLE
B4 had an IC50 of less than 100 µM.

B5: SEQ ID NO 206 (peptide)
peptide: YRRERVEFPCWLAQLGELCDKE
In turn, B5 registered an IC50 of less than 100 µM.

B6: SEQ ID NO 184 (peptide)
peptide: WQPCWMAQLGELCDLE
Take B6: the IC50 is less than 100 µM.

B7: SEQ ID NO 201 (peptide)
peptide: WRVTASLQPCWMAQLGELCDLN
With B7, the IC50 is less than 100 µM.

B8: SEQ ID NO 213 (peptide)
peptide: WKPCWMARLGELCDIEDTKVNA
The molecule B8 registered an IC50 of less than 100 µM.

B9: SEQ ID NO 188 (peptide)
peptide: LHPCWMAQLGELCDLE
modifications: disulfide 4-13 (inferred)
In turn, B9 gave an IC50 of less than 100 µM.

B10: SEQ ID NO 89 (peptide)
peptide: WFPCWMAQLGQLCDLE
For the molecule B10, the IC50 is less than 100 µM.

B11: SEQ ID NO 214 (peptide)
peptide: SLPCWIARLGELCDLDGYDGEE
B11 gave an IC50 of less than 100 µM.

B12: SEQ ID NO 193 (peptide)
peptide: WSPCWIATLGELCDLD
B12 had a half-inhibitory concentration (IC50) of less than 100 µM.

B13: SEQ ID NO 189 (peptide)
peptide: SLPCWMAQLGELCDLV
Take B13: the IC50 is less than 100 µM.

B14: SEQ ID NO 196 (peptide)
peptide: WLSPPSYLPCWMAQLGELCDLV
The molecule B14 came in with an IC50 of less than 100 µM.

B15: SEQ ID NO 204 (peptide)
peptide: ALVGGTFYPCYVAHLGELCDIE
modifications: disulfide 10-19 (inferred)
Turning to B15, the IC50 was less than 100 µM.

B16: SEQ ID NO 211 (peptide)
peptide: YKPCQMAQLGELCDLDVDNKAE
Consider B16, for which the IC50 was less than 100 µM.

B17: SEQ ID NO 200 (peptide)
peptide: EQGMLGYFPCWKALLGDVCDLD
The molecule B17 returned an IC50 of less than 100 µM.

B18: SEQ ID NO 216 (peptide)
peptide: WKPCWIADLGELCDLAPAWHEY
B18 showed an IC50 of less than 100 µM.

B19: SEQ ID NO 199 (peptide)
peptide: DTGRDGWKPCWMALLGELCELE
B19 displayed an IC50 of less than 100 µM.

B20: SEQ ID NO 198 (peptide)
peptide: GAGVLHRWPCWMAKLGDLCDLD
In turn, B20 gave an IC50 of less than 100 µM.

B21: SEQ ID NO 194 (peptide)
peptide: WNPCWIAQLGDLCDMV
For the molecule B21, the IC50 was less than 100 µM.

B22: SEQ ID NO 195 (peptide)
peptide: WLPCWLAHLGDICDLQ
In turn, B22 gave an IC50 of less than 100 µM.

B23: SEQ ID NO 218 (peptide)
peptide: SKPCWMAQLGELCDLDVWNLQM
For B23, the IC50 was less than 100 µM.

B24: SEQ ID NO 212 (peptide)
peptide: FKPCWIANLGELCDMDDERSSE
modifications: disulfide 4-13 (inferred)
As for B24, the IC50 was less than 100 µM.

B25: SEQ ID NO 186 (peptide)
peptide: WLPCWMAKLGDLCELE
Take B25: the IC50 was less than 100 µM.

B26: SEQ ID NO 219 (peptide)
peptide: GYPCWLAQLGDYCDLDAGAPSW
Take B26: the IC50 was less than 100 µM.

B27: SEQ ID NO 197 (peptide)
peptide: WDVHAIRNPCWLAKLGDLCDLD
B27 yielded an IC50 of less than 100 µM.

B28: SEQ ID NO 192 (peptide)
peptide: WQPCWRAKLGELCDLE
In turn, B28 yielded an IC50 of less than 100 µM.

B29: SEQ ID NO 203 (peptide)
peptide: TVGQFEWYPCSTAQLGELCDLD
Take B29: the IC50 was less than 100 µM.

B30: SEQ ID NO 92 (peptide)
peptide: SGHWYPCWMARLGELCDMEERA
For the molecule B30, the IC50 is less than 100 µM.

B31: SEQ ID NO 90 (peptide)
peptide: WRPCWRAYLGELCDLEAMPRAT
B31 showed an IC50 of less than 100 µM.

B32: SEQ ID NO 79 (peptide)
peptide: QPCWLAQVGDLCDLLWPGPL
As to B32, the IC50 is less than 100 µM.

B33: SEQ ID NO 220 (peptide)
peptide: SWPCWMAQLGDLCDLDGSAGAS
As for B33, the IC50 was less than 100 µM.

B34: SEQ ID NO 185 (peptide)
peptide: WKPCWLAQLGDLCEME
On to B34, for which the half-maximal inhibitory concentration (IC50) is less than 100 µM.

B35: SEQ ID NO 191 (peptide)
peptide: WWPCSSAELGEICDFD
With B35, the IC50 is less than 100 µM.

B36: SEQ ID NO 210 (peptide)
peptide: WYPCWMAHLGDVCDLESFGQTE
Take B36: the IC50 was less than 100 µM.

B37: SEQ ID NO 205 (peptide)
peptide: IDRADGWKPCWIAQVGELCVLE
For B37, the IC50 was less than 100 µM.

B38: SEQ ID NO 215 (peptide)
peptide: FYPCWKARLGELCELEELRGYY
With B38, the IC50 is less than 100 µM.

B39: SEQ ID NO 183 (peptide)
peptide: YKPCWIAQLGELCELE
B39 had an IC50 of less than 100 µM.

B40: SEQ ID NO 187 (peptide)
peptide: WLPCWMAQLGELCVME
Consider B40, for which the IC50 is less than 100 µM.

B41: SEQ ID NO 190 (peptide)
peptide: WKPCWMAGLGELCELD
For the molecule B41, the IC50 is less than 100 µM.

B42: SEQ ID NO 217 (peptide)
peptide: RLPCWRAQLGDLCELDWGLDMG
In the case of B42, the IC50 was less than 100 µM.

B43: SEQ ID NO 91 (peptide)
peptide: IRSCSPCWSADVGELCDLECEW
B43 displayed an IC50 of less than 100 µM.

B44: SEQ ID NO 202 (peptide)
peptide: GQVVETSLPCWEAQLGELCVLD
In turn, B44 yielded an IC50 of less than 100 µM.

B45: SEQ ID NO 221 (peptide)
peptide: WKPCWLAQLGELCDLERPSTTS
In the case of B45, the IC50 is less than 100 µM.

B46: SEQ ID NO 208 (peptide)
peptide: IPKGESWFPCWMAAMGELCDLE
modifications: disulfide 10-19 (inferred)
As to B46, the IC50 is less than 100 µM.

The term IC50 denotes the concentration that gives 50% inhibition. A lower IC50 goes with greater potency in that assay.
